Experimental data: publication PMC10716145, “ZNF524 directly interacts with telomeric DNA and supports telomere integrity”
Changes are numbered by the printed parent chain.

Experiments:
[1] = molecular target: T1, ZNF524 ZF1-4 minimal domain (human, UniProt Q96C55 110-223); assay: ITC; ITC: 20 mM Tris-HCl pH 7.5, 150 mM NaCl, 20 C; pull-down: 50 mM Tris-HCl pH 7.5, 150 mM NaCl, 0.5% IGEPAL, 5 mM MgCl2, 1 mM DTT, salmon sperm DNA, 4 C; settings: protein: recombinant; tags: none (GST removed by TEV); blunt
T1 sequence: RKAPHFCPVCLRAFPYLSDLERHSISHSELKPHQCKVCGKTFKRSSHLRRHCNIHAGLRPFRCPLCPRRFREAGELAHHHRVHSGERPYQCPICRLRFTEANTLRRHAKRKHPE

[2] = molecular target: T1, ZNF524 ZF1-4 minimal domain; assay: ITC; annealed in 100 mM NaCl; ITC: 20 mM Tris-HCl pH 7.5, 150 mM NaCl, 20 C; pull-down: 50 mM Tris-HCl pH 7.5, 150 mM NaCl, 0.5% IGEPAL, 5 mM MgCl2, 1 mM DTT, salmon sperm DNA, 4 C; settings: protein: recombinant, tags: none (GST removed by TEV), single strand
ZNF524 ZF1-4 R153A = molecular target: T2, ZNF524 ZF1-4 R153A (human, UniProt Q96C55 110-223, R153A); assay: ITC; ITC: 20 mM Tris-HCl pH 7.5, 150 mM NaCl, 20 C; pull-down: 50 mM Tris-HCl pH 7.5, 150 mM NaCl, 0.5% IGEPAL, 5 mM MgCl2, 1 mM DTT, salmon sperm DNA, 4 C; settings: protein: recombinant; tags: none (GST removed by TEV); blunt
T2 sequence: T1 sequence with R44A

ZNF524 ZF1-4 R180A = molecular target: T3, ZNF524 ZF1-4 R180A (human, UniProt Q96C55 110-223, R180A); assay: as above; settings: protein: recombinant; tags: none (GST removed by TEV); blunt
T3 sequence: T1 sequence with R71A

[3] = molecular target: T4, ZNF524 ZF2-4 (ZF1 removed) (human, UniProt Q96C55 138-223); assay: as above; settings: protein: recombinant; tags: none (GST removed by TEV); blunt
T4 sequence: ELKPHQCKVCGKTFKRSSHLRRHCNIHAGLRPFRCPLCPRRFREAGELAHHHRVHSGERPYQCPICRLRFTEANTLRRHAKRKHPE

ZNF524 ZF1-4 N211G = molecular target: T5, ZNF524 ZF1-4 N211G (human, UniProt Q96C55 110-223, N211G); assay: as above; settings: protein: recombinant; tags: none (GST removed by TEV); blunt
T5 sequence: T1 sequence with N102G

ZNF524 ZF1-4 S155A = molecular target: T6, ZNF524 ZF1-4 S155A (human, UniProt Q96C55 110-223, S155A); assay: as above; settings: protein: recombinant; tags: none (GST removed by TEV); blunt
T6 sequence: T1 sequence with S46A

ZNF524 ZF1-4 R159A = molecular target: T7, ZNF524 ZF1-4 R159A (human, UniProt Q96C55 110-223, R159A); assay: as above; settings: protein: recombinant; tags: none (GST removed by TEV); blunt
T7 sequence: T1 sequence with R50A

ZNF524 ZF1-4 R131A = molecular target: T8, ZNF524 ZF1-4 R131A (human, UniProt Q96C55 110-223, R131A); assay: as above; settings: protein: recombinant; tags: none (GST removed by TEV); blunt
T8 sequence: T1 sequence with R22A

ZNF524 ZF2M = molecular target: T9, ZNF524 ZF2M (human, UniProt Q96C55 110-223, R153A;S155A;H156A;R159A); assay: as above; settings: protein: recombinant; tags: none (GST removed by TEV); blunt
T9 sequence: T1 sequence with R44A, S46A, H47A, R50A

ZNF524 ZF1-4 E184A = molecular target: T10, ZNF524 ZF1-4 E184A (human, UniProt Q96C55 110-223, E184A); assay: as above; settings: protein: recombinant; tags: none (GST removed by TEV); blunt
T10 sequence: T1 sequence with E75A

ZNF524 ZF1-4 E181A = molecular target: T11, ZNF524 ZF1-4 E181A (human, UniProt Q96C55 110-223, E181A); assay: as above; settings: protein: recombinant; tags: none (GST removed by TEV); blunt
T11 sequence: T1 sequence with E72A

[4] = molecular target: T12, ZNF524 ZF1-3 (ZF4 removed) (human, UniProt Q96C55 110-196); assay: as above; settings: protein: recombinant; tags: none (GST removed by TEV); blunt
T12 sequence: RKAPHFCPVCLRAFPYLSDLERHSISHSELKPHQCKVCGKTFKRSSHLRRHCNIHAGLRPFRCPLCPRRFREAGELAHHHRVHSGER

ZNF524 ZF1-4 H156A = molecular target: T13, ZNF524 ZF1-4 H156A (human, UniProt Q96C55 110-223, H156A); assay: as above; settings: protein: recombinant; tags: none (GST removed by TEV); blunt
T13 sequence: T1 sequence with H47A

ZNF524 ZF2-3 = molecular target: T14, ZNF524 ZF2-3 (human, UniProt Q96C55 138-196); assay: as above; settings: protein: recombinant; tags: none (GST removed by TEV); blunt
T14 sequence: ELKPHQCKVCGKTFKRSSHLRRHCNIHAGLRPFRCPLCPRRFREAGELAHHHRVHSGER

ZNF524 ZF1-4 R215A = molecular target: T15, ZNF524 ZF1-4 R215A (human, UniProt Q96C55 110-223, R215A); assay: as above; settings: protein: recombinant; tags: none (GST removed by TEV); blunt
T15 sequence: T1 sequence with R106A

ZNF524 ZF3-4 = molecular target: T16, ZNF524 ZF3-4 (human, UniProt Q96C55 166-223); assay: as above; settings: protein: recombinant; tags: none (GST removed by TEV); blunt
T16 sequence: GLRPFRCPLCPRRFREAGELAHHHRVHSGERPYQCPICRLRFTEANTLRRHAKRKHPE

ZNF524 ZF1-4 (crystal) = molecular target: T17, ZNF524 ZF1-4 (crystal) (human, UniProt Q96C55 107-237); assay: crystal structure 2.40 A; Zn2+; ITC: 20 mM Tris-HCl pH 7.5, 150 mM NaCl, 20 C; pull-down: 50 mM Tris-HCl pH 7.5, 150 mM NaCl, 0.5% IGEPAL, 5 mM MgCl2, 1 mM DTT, salmon sperm DNA, 4 C; settings: protein: recombinant; tags: none (GST removed by TEV); 5' overhang 1 nt at each end (A and T)
T17 sequence: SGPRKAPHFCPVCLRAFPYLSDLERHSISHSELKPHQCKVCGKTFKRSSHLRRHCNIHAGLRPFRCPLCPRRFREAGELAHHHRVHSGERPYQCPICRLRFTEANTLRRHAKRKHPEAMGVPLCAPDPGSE

B1: TCAGGG duplex (dsDNA)
DNA 1: GGTCAGGGTCAG
DNA 2: CTGACCCTGACC
Kd [1]: 280 ± 40 nM

B2: (TTAGGG)4-ssDNA (ssDNA)
DNA: TTAGGGTTAGGGTTAGGGTTAGGG
binding result [2]: no binding

B3: TTAGGG 12-bp duplex (dsDNA)
DNA 1: GGTTAGGGTTAG
DNA 2: CTAACCCTAACC
Kd (ZNF524 ZF1-4 R153A): 150 ± 40 nM
Kd (ZNF524 ZF1-4 R180A): 410 ± 80 nM
Kd [3]: 620 ± 100 nM
Kd (ZNF524 ZF1-4 N211G): 170 ± 30 nM
Kd [1]: 90 ± 20 nM
Kd (ZNF524 ZF1-4 S155A): 250 ± 30 nM
Kd (ZNF524 ZF1-4 R159A): 100 ± 90 nM
Kd (ZNF524 ZF1-4 R131A): 340 ± 50 nM
binding result (ZNF524 ZF2M): no binding
Kd (ZNF524 ZF1-4 E184A): 230 ± 130 nM
Kd (ZNF524 ZF1-4 E181A): 420 ± 90 nM
Kd [4]: 590 ± 150 nM
Kd (ZNF524 ZF1-4 H156A): 60 ± 40 nM
Kd (ZNF524 ZF2-3): 1210 ± 790 nM
Kd (ZNF524 ZF1-4 R215A): 220 ± 60 nM
binding result (ZNF524 ZF3-4): no binding

B4: telomeric crystal duplex (dsDNA)
DNA 1: AGGGTTAGGGTTAGG
DNA 2: TCCTAACCCTAACCC
binding result (ZNF524 ZF1-4 (crystal)): binds

B5: TGAGGG duplex (dsDNA)
DNA 1: GGTGAGGGTGAG
DNA 2: CTCACCCTCACC
Kd [1]: 270 ± 110 nM

B6: GTGAGT duplex (dsDNA)
DNA 1: GTGTGAGTGTGA
DNA 2: TCACACTCACAC
binding result [1]: no binding

B7: TTGGGG duplex (dsDNA)
DNA 1: GGTTGGGGTTGG
DNA 2: CCAACCCCAACC
Kd [1]: 330 ± 130 nM
